Values of other authors in US9422609B2, “Methods, compositions and devices for maintaining chemical balance of chlorinated water” (priority 2006, dated 2016).

Details: hydrolysis of cyanuric acid

B1: cyanuric acid amidohydrolase from strain ADP of Pseudomonas sp.: cyanuric acid amidohydrolase (EC 3.5.2.15) from strain ADP of Pseudomonas sp. (protein, UniProt P58329 1-363, looked up)
Cyanuric acid amidohydrolase: MYHIDVFRIPCHSPGDTSGLEDLIETGRVAPADIVAVMGKTEGNGCVNDYTREYATAMLAACLGRHLQLPPHEVEKRVAFVMSGGTEGVLSPHHTVFARRPAIDAHRPAGKRLTLGIAFTRDFLPEEIGRHAQITETAGAVKRAMRDAGIASIDDLHFVQVKCPLLTPAKIASARSRGCAPVTTDTYESMGYSRGASALGIALATEEVPSSMLVDESVLNDWSLSSSLASASAGIELEHNVVIAIGMSEQATSELVIAHGVMSDAIDAASVRRTIESLGIRSDDEMDRIVNVFAKAEASPDGVVRGMRHTMLSDSDINSTRHARAVTGAAIASVVGHGMVYVSGGAEHQGPAGGGPFAVIARA
Km: 71 µM | Vmax: 8.4 µmol/min/mg | turnover rate: 3 reactions per second
